Our source for the Kd, binding result and binding signal values is patent US20040039175, “Modulation of viral gene expression by engineered zinc finger proteins” (published 2004).

Series [1] has as its target HIV-F (synthetic construct). The experiment in a line: ELONA; apparent Kd, phage ELISA, Zn2+. Particulars: protein: virion; label: biotin.
In series [2] the target is HIV-E (synthetic construct). The series is described as follows: ELONA; apparent Kd, phage ELISA; F3 subsite printed differently in original table. Particulars: protein: virion; label: biotin. Background: An ELISA detects its analyte on a solid surface through an enzyme-linked reagent.
Series [3] has as its target T1, 6F6 (7N-4/3 six-finger) (synthetic construct). The series is described as follows: EMSA; almost no affinity; 3 mismatches. Particulars: tags: Promega TNT; label: radiolabel. On the technique in general: In EMSA bound probe runs differently from free probe, usually more slowly.
In series [4] the target is T2, 7N (synthetic construct). The experiment in a line: EMSA; intact t2 site. Particulars: tags: Promega TNT; label: radiolabel.
Series [5] deals with HIV-G (synthetic construct). The experiment in a line: ELONA; apparent Kd, phage ELISA, Zn2+. Particulars: protein: virion; label: biotin.
The target of series [6] is T2, 7N. The series is described as follows: EMSA; roughly similar apparent Kd to 4/3. Particulars: tags: Promega TNT; label: radiolabel.
The target in series [7] is T1, 6F6 (7N-4/3 six-finger). The experiment in a line: EMSA; affinity relative to 4/3 or 7N alone. Particulars: tags: Promega TNT; label: radiolabel.
Series [8] concerns the target HIV-D (synthetic construct). The experiment in a line: ELONA; apparent Kd, phage ELISA, Zn2+. Particulars: protein: virion; label: biotin.
Series [9] has as its target HIV-C (synthetic construct). The series is described as follows: ELONA; apparent Kd, phage ELISA, Zn2+. Particulars: protein: virion; label: biotin.
Series [10] concerns the target T1, 6F6 (7N-4/3 six-finger). The experiment in a line: EMSA; almost no affinity; 11 mismatches. Particulars: tags: Promega TNT; label: radiolabel.
The target of series [11] is T2, 7N. The series is described as follows: ELONA; apparent Kd comparable with Zif268, weakest of the three; phage ELISA. Particulars: protein: virion.
In series [12] the target is T1, 6F6 (7N-4/3 six-finger). The experiment in a line: EMSA; almost no affinity; 8 mismatches. Particulars: tags: Promega TNT; label: radiolabel.
Series [13] has as its target T2, 7N. The series is described as follows: EMSA. Particulars: tags: Promega TNT; label: radiolabel.

Some results are limits rather than exact numbers.

T1 sequence (chain, as listed by the source): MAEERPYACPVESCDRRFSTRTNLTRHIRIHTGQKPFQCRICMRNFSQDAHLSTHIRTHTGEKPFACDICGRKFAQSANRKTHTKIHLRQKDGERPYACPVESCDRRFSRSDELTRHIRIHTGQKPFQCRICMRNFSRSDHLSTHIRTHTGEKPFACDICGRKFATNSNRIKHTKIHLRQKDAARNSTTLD

B1: HIV-F site (dsDNA)
DNA 1: GGAGCTCTCT
DNA 2: AGAGAGCTCC
With B1, the Kd in series [1] came to 13.3 nM.

B2: HIV-E site (dsDNA)
DNA 1: ATCTGAGCCT
DNA 2: AGGCTCAGAT
On to B2, for which the Kd in [2] worked out at 36.6 nM.

B3: 68K probe (dsDNA)
DNA 1: CTTCCCGGTTCGGCGGTAATGAGATACGAG
DNA 2: CTCGTATCTCATTACCGCCGAACCGGGAAG
Take B3: the figures for the binding result in [3] and in [4] were “no binding” and “binds”, respectively.

B4: HIV-G site (dsDNA)
DNA 1: GCTAACTAGG
DNA 2: CCTAGTTAGC
Turning to B4, in series [5], the Kd was determined as 40.3 nM.

B5: T24 probe (dsDNA)
DNA 1: CCGCCGGATCGGGCGGTAATGAGATGCCATG
DNA 2: CATGGCATCTCATTACCGCCCGATCCGGCGG
Consider B5, for which the binding result in series [6] is recorded as “binds”. Moreover, the binding signal in [7] was no less than 25 fold.

B6: HIV-D site (dsDNA)
DNA 1: GCAGCTGCTT
DNA 2: AAGCAGCTGC
As to B6, the Kd in series [8] was 4 nM.

B7: HIV-C site (dsDNA)
DNA 1: GATGCTGCAT
DNA 2: ATGCAGCATC
Consider B7, for which the Kd in [9] worked out at 13.7 nM.

B8: H2B probe (dsDNA)
DNA 1: ATAGAATCGCTTATGCAAATAAGGTGAAGA
DNA 2: TCTTCACCTTATTTGCATAAGCGATTCTAT
For B8, the binding result in series [10] is reported as “no binding”.

B9: t2 (dsDNA)
DNA 1: TAATGAGAT
DNA 2: ATCTCATTA
B9: the Kd in series [11] is roughly 1 nM.

B10: IE110 probe (dsDNA)
DNA 1: TGGGTTCCGGGTATGGTAATGAGTTTCTTC
DNA 2: GAAGAAACTCATTACCATACCCGGAACCCA
As for B10, the binding result in [12] is recorded as “no binding”; in series [13], “binds”.
